Assay results published in patent US5198419A, “Formulated medicines for enhancing the efficacy of beta-lactam antibiotics in prophylaxis and treatment against infectious disease due to pathogenic bacteria” (Immuno Japan Inc., priority 1989, dated 1993).
Entries after “also recorded” stand apart in the source; their conditions may differ.

Assays:
[1] = tested on: Klebsiella pneumoniae strain 3K25; experiment: Example 1: experimental infection in mice, cefpodoxime with or without native lactoferrin; type: in vivo, strain ICR; conditions: lactoferrin alone 0.4 mg/mouse p.o.; within 24 hours / one day after injection
Method: (§1) For ED50 values, a range of amounts of antibiotics is given in the examples (e.g., penicillin G: 0.4, 0.2, 0.1, 0.05 mg/mouse). To calculate the ED50, groups of mice in the monotherapy groups and groups of mice in the combined therapy groups received the indicated amount of antibiotic (e.g., one group received 0.4 mg/mouse of penicillin G, one group received 0.2 mg/mouse of penicillin G, one group received 0.1 mg/mouse of penicillin G, one group received 0.05 mg/mouse of penicillin G).
Sixty male mice, strain ICR, four weeks of age, body weight 19±1.0 g (mean±the standard deviation) were randomly divided into ten groups (n=6); the first group was assigned to the untreated control, the second group to the lactoferrin treated control group, the third through the sixth groups to the cephalosporin treated controls, and the seventh through the tenth groups to the combined treatment group of cephalosporin and lactoferrin. The mice were intraperitoneally injected with pneumobacillus, Klebsiella pneumoniae strain 3K25, 5×10^6 colony forming units (CFU) per mouse. The antibiotics used were orally active cephalosporin or cefpodoxime, and the bovine lactoferrin was the native one derived from cheese whey with 28.5% iron-saturation. […]

[2] = tested on: Klebsiella pneumoniae strain 3K25; experiment: Example 2: experimental infection in mice, cefpodoxime with or without apolactoferrin; type: in vivo, strain ICR; conditions: lactoferrin treated control (iron free apolactoferrin 0.4 mg p.o.)
Method: as §1
Sixty male mice, strain ICR, five weeks of age, weighing 19.3±1.1 g (mean body weight±the standard deviation) were randomly allocated into ten groups (n=6), and intraperitoneally injected with pneumobacilli, Klebsiella pneumoniae strain 3K25, 5×10^5 CFU/mouse. One hour after the injection, the first group was orally given 0.2 ml of physiological saline, the second group orally given iron free apolactoferrin (0.4 mg) in 0.2 ml of saline, the third through the sixth groups were orally given cefpodoxime (4, 2, 1, and 0.5 mg/mouse) in 0.2 ml saline, and the seventh through the tenth groups orally given the admixture of cefpodoxime (4, 2, 1, and 0.5 mg/mouse) and apolactoferrin (0.4 mg) in 0.2 ml of saline. Mice were fed ad libitum and observed for a week under the same conditions as described in Example 1.

[3] = tested on: Klebsiella pneumoniae strain 3K25; experiment: Example 5: experimentally infected fed and fasted mice, cefpodoxime with or without native lactoferrin; type: in vivo, strain ICR; conditions: cefpodoxime
Method: as §1
Male mice, strain ICR, five weeks old, weighing an average of 21.6 g, were randomly allocated into sixteen groups (n =6). During the next 24 hours, eight groups were allowed free access to diet and water, while the other eight groups were fasted overnight. On the next day, all the mice were injected with 1.4×10^6 CFU/mouse of Klebsiella pneumoniae strain 3K25. The minimal lethal dose of this bacterium is […], and thus the injected dose was 1,000 times greater than the minimal lethal dose. Immediately after the injection, the fed groups were orally given cefpodoxime (10, 5, 2.5, and 1.25 mg/mouse) simultaneously with or without native lactoferrin (0.2 mg/mouse). The fasted groups also were orally given cefpodoxime (10, 5, 2.5, and 1.25 mg/mouse) simultaneously with or without native lactoferrin (0.2 mg/mouse).

[4] = tested on: Escherichia coli #11; experiment: Example 6: experimental infection in mice, ampicillin with or without apolactoferrin; type: in vivo, strain ddY; conditions: simultaneous administration of lactoferrin with ampicillin
Method: as §1
Male mice, strain ddY, five weeks old, weighing an average of 21.5 g, were randomly allocated into groups (n=10), and they were intraperitoneally injected with Escherichia coli #11, 1.2×10^6 CFU/mouse. Immediately after the injection, the untreated control group was orally given 0.2 ml of distilled water, the second through the fifth groups were treated once orally by ampicillin (8, 4, 2 and 1 mg/mouse), and the sixth through the ninth groups with ampicillin (4, 2, 1 and 0.5 mg/mouse) plus apolactoferrin (1 mg/mouse) in 0.2 ml of distilled water. The mice were fed ad libitum and observed for one week under the same conditions as described in Example 1. […] It is apparent from the results that lactoferrin not only potentiates the efficacy of the cephalosporin class but also the penicillin class of antibiotics.

[5] = tested on: Klebsiella pneumoniae 3K25; experiment: Example 7: experimental infection in mice, cefaclor with or without native lactoferrin; type: in vivo, strain ddY; conditions: simultaneous oral beta-lactam antibiotics with lactoferrin one hour after i.p. injection (as shown in Table 3)
[6] = tested on: Klebsiella pneumoniae strain 3K25; experiment: Example 8: dose-response relationship of potentiation of cefpodoxime efficacy by oral lactoferrin; type: in vivo, mice, ddY
Method: as §1
The dose-response relationship of the potentiation of the antibiotic efficacy by lactoferrin was determined using the same experimental infection system as described in Example 1. Male ddY mice, five weeks of age, weighing approximate 20.3 g, were randomly allocated into groups (n=10); the first group was assigned to the cefpodoxime control (5 mg/mouse). The mice were intraperitoneally injected with pneumobacillus, Klebsiella pneumoniae strain 3K25, 3×10^5 per mouse. One hour after the injection, the antibiotic cefpodoxime (1, 0.5, 0.25 and 0.125 mg/mouse) was orally given in 0.2 ml of physiological saline.

[7] = tested on: Staphylococcus aureus 209P; experiment: Example 9: time-schedule of lactoferrin administration and efficacy of amoxicillin; type: in vivo, mice, ddY; conditions: lactoferrin dosed from 12 hours before to three hours after the injection
Method: as §1
The effect of time-schedule of lactoferrin administration on the potentiation of antibiotic efficacy was examined using an experimental model similar to Example 1. Male ddY mice (n=10), five weeks old, weighing an average of 21.9 g, were used in this experiment. On day 0 all the mice were intraperitoneally injected with 1.2×10^5 CFU/mouse of Staphylococcus aureus 209P. Amoxicillin ([…], 0.625 mg/mouse) was orally given one hour after the injection.

[8] = tested on: pathogenic bacteria; experiment: Potentiation of beta-lactam antibiotics by lactoferrin at the whole animal level (general statements); type: in vivo
Method: Co-administration of lactoferrin with beta-lactam antibiotics greatly reduces the antibiotic requirement, that is, 1/2 to 1/6 of the amount of the antibiotics required in monotherapy in combination with lactoferrin (combined therapy) show the same curative effects as the antibiotic treatment alone (monotherapy). Oral administration of lactoferrin is an effective route, and the dose of lactoferrin required for this potentiation is 0.5-100 mg/kg and the optimum dose may be 1-10 mg/kg.
Apolactoferrin can be utilized as a raw material to prepare lactoferrin with desired degrees of iron-saturation by adding calculated amounts of ferric ions in the presence of carbonium anions. […] Therefore, lactoferrins with various degrees of iron-saturation can be successfully utilized in this invention. The efficacy potentiation of beta-lactam antibiotics by lactoferrin is independent of the degree of the iron-saturation of lactoferrin.
When lactoferrin is orally dosed to potentiate the efficacy of beta-lactam antibiotics, either the combined formulation with the antibiotics or the formulation containing lactoferrin alone as an active ingredient can be successfully used. When lactoferrin is dosed separately from the antibiotics, the timing of the dosing is very important. The potentiating effect is the strongest when lactoferrin is given from six hours before to one hour after the antibiotic administration.

[9] = Stability of bovine lactoferrin powder; type: physicochemical
Description: The stability of bovine lactoferrin powder is also not affected by the degree of iron-saturation. […] Much care should be taken to avoid lactoferrin denaturation, especially denaturation by heat, in any formulating process. Due to its high stability, it is readily processed into mixed formulations with beta-lactam antibiotics for oral administration in any proportion, for example, freely mixed with lactose, cellulose, cellulose derivatives, magnesium stearate, and talc. One of the best ways to make lactoferrin liquid formulations, such as tincture and syrup, is adjustment of the pH to pH 3.1-4.0 by the addition of lactic acid to avoid bacterial contamination, then add paraaminobenzoic acid derivatives as preservatives against fungal contamination, and filtration through membrane filters (e.g., with pore size of 0.2 μm) into aseptic bottles.

[10] = bovine lactoferrin, oral; cited from earlier work

B1: lactoferrin: bovine lactoferrin, the native one derived from cheese whey with 28.5% iron-saturation (protein, UniProt P24627 20-708, looked up)
Lactotransferrin: APRKNVRWCTISQPEWFKCRRWQWRMKKLGAPSITCVRRAFALECIRAIAEKKADAVTLDGGMVFEAGRDPYKLRPVAAEIYGTKESPQTHYYAVAVVKKGSNFQLDQLQGRKSCHTGLGRSAGWIIPMGILRPYLSWTESLEPLQGAVAKFFSASCVPCIDRQAYPNLCQLCKGEGENQCACSSREPYFGYSGAFKCLQDGAGDVAFVKETTVFENLPEKADRDQYELLCLNNSRAPVDAFKECHLAQVPSHAVVARSVDGKEDLIWKLLSKAQEKFGKNKSRSFQLFGSPPGQRDLLFKDSALGFLRIPSKVDSALYLGSRYLTTLKNLRETAEEVKARYTRVVWCAVGPEEQKKCQQWSQQSGQNVTCATASTTDDCIVLVLKGEADALNLDGGYIYTAGKCGLVPVLAENRKSSKHSSLDCVLRPTEGYLAVAVVKKANEGLTWNSLKDKKSCHTAVDRTAGWNIPMGLIVNQTGSCAFDEFFSQSCAPGADPKSRLCALCAGDDQGLDKCVPNSKEKYYGYTGAFRCLAEDVGDVAFVKNDTVWENTNGESTADWAKNLNREDFRLLCLDGTRKPVTEAQSCHLAVAPNHAVVSRSDRAAHVKQVLLHQQALFGKNGKNCPDKFCLFKSETKNLLFNDNTECLAKLGGRPTYEEYLGTEYVTAIANLKKCSTSPLLEACAFLTR
modifications: 28.5% iron-saturated
notes: bovine lactoferrin, the native one derived from cheese whey with 28.5% iron-saturation
- mortality [1]: all mice in those groups died by one day post-injection; also recorded: died within 24 hours
- mortality within 24 hours [2]: All the mice died within 24 hours
- rate of potentiation of antibiotic efficacy ([3]; fasted state): five fold
- rate of potentiation of antibiotic efficacy ([3]; fed state): three fold
- potentiation of ampicillin efficacy in vivo [4]: eight fold
- potentiation of the antibiotic efficacy versus antibiotic treatment alone [5]: 2.8 fold
- potentiation of antibiotic efficacy ([6]; lactoferrin doses from 50 to 0.05 mg per mouse, cefpodoxime): significantly potentiated the antibiotic efficacy at the same magnitude regardless of the dose
- lactoferrin dose at which potentiation reaches a plateau ([6]; with cefpodoxime): 0.05 mg per mouse
- potentiation of amoxicillin's efficacy [7]: significantly potentiated
- effect of the degree of iron-saturation on potentiation of beta-lactam antibiotics ([8]; 100%, 28% and 0% iron-saturated lactoferrin): does not affect the potentiation
- potentiating effect by timing of lactoferrin dosing ([8]; 12 hours before or six hours after the antibiotic administration): significant but less potent effect
- potentiating effect by timing of lactoferrin dosing ([8]; from six hours before to one hour after the antibiotic administration): the strongest
- effect of the degree of iron-saturation on stability [9]: not affected
- stability ([9]; room temperature): very stable at room temperature
- excretion in intact form in feces [10]: considerable amounts are excreted in intact form in feces
- resistance to gastrointestinal digestion [10]: highly resistant to gastrointestinal digestion
